Test results published in US6800467B1, “Polypeptides having aminopeptidase activity and nucleic acids encoding same” (Novozymes Biotech, Inc., priority 1997, dated 2004).

Columns and labels:
Type in all cases: biochemical
[1] = Kinetic parameters of aminopeptidase II for p-nitroanilides at pH 7.0 and 25° C.; settings: pH 7.0, 25° C.
Experimental: The purified aminopeptidase II described in Example 11 was used in the following characterization.
Kinetic parameters of the aminopeptidase II were determined for several p-nitroanilides (pNA) including Leu-pNA, Gly-pNA, Ala-pNA, and Pro-pNA (Sigma Chemical Co., St. Louis, Mo., or Bachem, Torrance, Calif.). Stock solutions of 100 mg of each p-nitroanilide per ml of dimethylsulfoxide were diluted with 50 mM potassium phosphate pH 7.0 buffer to concentrations ranging from 0.0064 to 9.56 mM. […] The reaction of the aminopeptidase II with the p-nitroanilide was initiated when a 100 μl aliquot of the enzyme solution in 50 mM potassium phosphate pH 7.0 was added to 100 μl of a substrate solution in a microtiter plate well and monitored at 405 nm and 25° C. using a THERMOmax Microplate Reader (Molecular Devices Corp., Sunnyvale, Calif.).

[2] = pH optimum using Ala-pNA as substrate in universal buffer
Experimental: The purified aninopeptidase II described in Example 15 was used in the following characterizations.
The Ala-pNA substrate was prepared by dissolving 100 mg of Ala-pNA in 1 ml of DMSO and adding 20 μl of the Ala-pNA/DMSO solution to 980 μl of the universal buffer at the various pH values. The assay was initiated by adding a 15 μl aliquot of the aminopeptidase II in 50 mM sodium phosphate pH 7.5 buffer to 200 μl of 2 mg/ml Ala-pNA at the various pH values at ambient temperature. The change in absorbance at 405 nm was monitored for 5 minutes. Autohydrolysis of the substrate as a control was determined by adding 15 μl of 50 mM sodium phosphate pH 7.5 buffer to 200 μl of 2 mg/ml Ala-pNA at the various pH values.

[3] = test system: wheat gluten meal tablets; test: Degree of hydrolysis (DH) assay, gluten; settings: 50° C., 18 hours
Experimental: The purified aminopeptidase II described in Example 11 was tested in degree of hydrolysis assays using soy, wheat gluten, and casein as substrates according to the following procedure.
The degree of hydrolysis (DH) assays were performed at 50° C. for 18 hours as a mini-hydrolysis on a 10 ml scale using soy bean meal tablets, wheat gluten meal tablets, and sodium-caseinate at a 2% concentration adjusted to pH 7, if necessary, with no pH adjustment during hydrolysis. The hydrolysates were inactivated at 85° C. for 3 minutes in a waterbath. The enzymes used were FLAVOURZYME™ and aminopeptidase II. The enzymes were dosed as follows. […] Upon hydrolysis, p-nitroanilide is liberated turning the solution yellow which is monitored 405 nm.
The degree of hydrolysis (DH), as defined as described by Adler-Nissen (1986, Enzymic Hydrolysis of Food Proteins, Elsevier Applied Science Publishers), was determined by reaction of the supernatant with OPA (ortho-phtaldialdehyde, Sigma Chemical Co., St. Louis, Mo.) according to the following procedure The hydrolysate was diluted 100-fold into distilled water. […] The solution was then shaken well and after 2 minutes exactly, the absorbance at 340 nm was measured and compared to the absorbance of a 0.95 mM L-serine (distilled water) solution after subtraction of the blank value (water reacted with OPA reagent). […]

[4] = substrate Ala-pNA, enzyme of Example 11
[5] = substrate Gly-pNA, enzyme of Example 11
[6] = substrate Pro-pNA, enzyme of Example 11

B1: aminopeptidase II: Recombinant Aspergillus oryzae 1568 (ATCC 20386) aminopeptidase II, 496 amino acids (SEQ ID NO:2), produced in Aspergillus oryzae or Fusarium (protein)
chain: MRSLLWASLLSGVLAGRALVSPDEFPEDIQLEDLLEGSQQLEDFAYAYPERNRVFGGKAHDDTVNYLYEELKKTGYYDVYKQPQVHLWSNADQTLKVGDEEIEAKTMTYSPSVEVTADVAVVKNLGCSEADYPSDVEGKVALIKRGECPFGDKSVLAAKAKAAASIVYNNVAGSMAGTLGAAQSDKGPYSAIVGISLEDGQKLIKLAEAGSVSVDLWVDSKQENRTTYNVVAQTKGGDPNNVVALGGHTDSVEAGPGINDDGSGIISNLVIAKALTQYSVKNAVRFLFWTAEEFGLLGSNYYVSHLNATELNKIRLYLNFDMIASPNYALMIYDGDGSAFNQSGPAGSAQIEKLFEDYYDSIDLPHIPTQFDGRSDYEAFILNGIPSGGLFTGAEGIMSEENASRWGGQAGVAYDANYHAAGDNMTNLNHEAFLINSKATAFAVATYANDLSSIPKRNTTSSLHRRARTMRPFGKRAPKTHAHVSGSGCWHSQVEA
Km [1, 4]: 11 mM
Vmax [1, 4]: 1200 relative units
Km [1, 5]: 0.3 mM
Vmax [1, 5]: 1670 relative units
Vmax ([1]; substrate Leu-pNA, enzyme of Example 11): 6400 relative units
Km ([1]; substrate Leu-pNA, enzyme of Example 11 (produced in Aspergillus)): 7 mM
Km [1, 6]: 2 mM
Vmax [1, 6]: 120 relative units
pH of optimal activity ([2]; Ala-pNA as substrate, ambient temperature, enzyme of Example 15 (produced by Fusarium)): 9.5-10
Avg. Activity ([2]; pH 4.42, Ala-pNA, ambient temperature): 0 mOD/min
Relative Activity ([2]; pH 4.42, Ala-pNA, relative to pH 9.68): 0
Avg. Activity ([2]; pH 4.91, Ala-pNA, ambient temperature): 2 mOD/min
Relative Activity ([2]; pH 4.91, Ala-pNA, relative to pH 9.68): 0.006
Avg. Activity ([2]; pH 5.41, Ala-pNA, ambient temperature): 7.8 mOD/min
Relative Activity ([2]; pH 5.41, Ala-pNA, relative to pH 9.68): 0.024
Avg. Activity ([2]; pH 5.89, Ala-pNA, ambient temperature): 13.9 mOD/min
Relative Activity ([2]; pH 5.89, Ala-pNA, relative to pH 9.68): 0.043
Avg. Activity ([2]; pH 6.40, Ala-pNA, ambient temperature): 16.37 mOD/min
Relative Activity ([2]; pH 6.40, Ala-pNA, relative to pH 9.68): 0.051
Avg. Activity ([2]; pH 6.90, Ala-pNA, ambient temperature): 23.48 mOD/min
Relative Activity ([2]; pH 6.90, Ala-pNA, relative to pH 9.68): 0.0727
Avg. Activity ([2]; pH 7.27, Ala-pNA, ambient temperature): 41.24 mOD/min
Relative Activity ([2]; pH 7.27, Ala-pNA, relative to pH 9.68): 0.128
Avg. Activity ([2]; pH 7.59, Ala-pNA, ambient temperature): 69.15 mOD/min
Relative Activity ([2]; pH 7.59, Ala-pNA, relative to pH 9.68): 0.214
Avg. Activity ([2]; pH 8.03, Ala-pNA, ambient temperature): 145.6 mOD/min
Relative Activity ([2]; pH 8.03, Ala-pNA, relative to pH 9.68): 0.45
Avg. Activity ([2]; pH 8.62, Ala-pNA, ambient temperature): 245.99 mOD/min
Relative Activity ([2]; pH 8.62, Ala-pNA, relative to pH 9.68): 0.761
Avg. Activity ([2]; pH 9.25, Ala-pNA, ambient temperature): 306.97 mOD/min
Relative Activity ([2]; pH 9.25, Ala-pNA, relative to pH 9.68): 0.95
Relative Activity ([2]; pH 9.68, Ala-pNA (reference)): 1.0
Avg. Activity ([2]; pH 9.68, Ala-pNA, ambient temperature): 323.15 mOD/min
Avg. Activity ([2]; pH 10.51, Ala-pNA, ambient temperature): 270.8 mOD/min
Relative Activity ([2]; pH 10.51, Ala-pNA, relative to pH 9.68): 0.838
Avg. Activity ([2]; pH 10.95, Ala-pNA, ambient temperature): 197.86 mOD/min
Relative Activity ([2]; pH 10.95, Ala-pNA, relative to pH 9.68): 0.612
increase of absolute DH ([3]; 2 LAPUs aminopeptidase II added to 3 LAPUs FLAVOURZYME): 6%
increase of absolute DH ([3]; 5 LAPUs aminopeptidase II added to 3 LAPUs FLAVOURZYME): 9%
